B1: RgPAL: phenylalanine ammonia-lyase derived from yeast Rhodotorula glutinis JN-1, SEQ ID NO: 5, expressed in E. coli (protein, listed as Rhodotorula glutinis)
chain: MAPSVDSIATSVANSLSNGLAGDLRKKTSGAGSLLPTTETTQIDIVERILADAGATDQIKLDGYTLTLGDVVGAARRGRTVKVADSPQIREKIDASVEFLRTQLDNSVYGVTTGFGGSADTRTEDAISLQKALLEHQLCGVLPTSMDGFALGRGLENSLPLEVVRGAMTIRVNSLTRGHSAVRIVVLEALTNFLNHGITPIVPLRGTISASGDLSPLSYIAASITGHPDSKVHVDGQIMSAQEAIALKGLQPVVLGPKEGLGLVNGTAVSASMATLALTDAHVLSLLAQANTALTVEAMVGHAGSFHPFLHDVTRPHPTQIEVARNIRTLLEGSKYAVHHETEVKVKDDEGILRQDRYPLRCSPQWLGPLVSDMIHAHSVLSLEAGQSTTDNPLIDLENKMTHHGGAFMASSVGNTMEKTRLAVALMGKVSFTQLTEMLNAGMNRALPSCLAAEDPSLSYHCKGLDIAAAAYTSELGHLANPVSTHVQPAEMGNQAINSLALISARRTAEANDVLSLLLATHLYCVLQAVDLRAMEFEHTKEFEPMVTDLLKQHFGALATADVEDKVRKSIYKRLQQNNSYDLEQRWHDTFSVATGAVVEALAGNEVSLASLNAWKVACAEKAIALTRTVRDSFWAAPSSASPALKYLSPRTRILYSFVREDVGVKARRGDVYLGKQEVTIGTNVSRIYEAIKDGRIAPVLVKMMA
modifications: RgPAL Polypeptide
B2: scFrm2: enzyme (nitroreductase) derived from Saccharomyces cerevisiae, SEQ ID NO:7, expressed in E. coli (protein, listed as Saccharomyces cerevisiae)
chain: MSPTGNYLNAITNRRTIYNLKPELPQGVGLDDVKRTVHVILKNTPTAFNSQVNRAVIIVGDTHKRIWDAVASAMPTAEAKKRPESCRDEAYGSVIFFTDEGPTEKLQRDFPALAAAFPTCAAHTTGAVQIQSWTALELLGLGANLQHYNDYVKSALPQDVPIAWTVQSQLVFGVPTALPEEKTFINNVINVYH
modifications: scFrm2 Polypeptide
B3: scHbn1: enzyme (nitroreductase) derived from Saccharomyces cerevisiae, SEQ ID NO:9, expressed in E. coli (protein, listed as Saccharomyces cerevisiae)
chain: MSAVATYLKTLTARRTIYALKPELPGEITINDIQSVVQTIIKETPTAFNSQPNRAVILTGETHKKVWDEVTKAIESPAGQKRPASARDEAFGSVIFFTDDKVTEKLKADFPAYAAAFPSFADHTSGAAQINSWVALEAMGLGGHLQHYNGYIKAALPSKIPESWTVQAQLVFGTPAAPPGEKTYIKNDVEIFN
modifications: scHbn1 Polypeptide
B4: cdFLDZ: enzyme derived from Clostridium difficile, SEQ ID NO: 11, expressed in E. coli (protein)
chain: MKISSMFTPIRIGSMTVPNRFVVPPMGNNFANTDGTLSETSKAYYLERALGGFGLITIESSVVDKKAKGGPRKPCLYDDSTIDSFKNVIDACHDAGSKVSIQLQHAGSEGNEKVAGHPLKAASAIPASNGRNTPLAITTEEIYELIESYGDAALRAQKAGADAVEVHCAHGYLVSSFISQRTNKRVDEFGGCFENRMRLPRLIIENIRKKVGNSLAILCRINSTDDVPGGIDVHDSSVIAAYLEDCGIDGLHVSRSIHIHDEYMWAPTTLHAGFSAELVTEIKKAVSIPVITVGRYTEPQFAELMVRQGRCDLVAFGRQSLADPEMPNKAKNGKLDEMIPCIACLQGCVPNMFQGKPIACLANPILGHEAELKPAEISKEVLVVGGGVGGMLAAWVCAKRGHNVTLVEKSEVLGGQMRLAAYPPGKGDITNLVRSYISKCNQYGVKICTNTEATVELIKEKSPDVVIIATGATPLVLPIPGINDSGLIHAVDLLDGKKSCGKKVLVVGGGMVGCEVAAFLGEQEHEVTVIELREEVGADVISEHRKFLMNDFENYNIHTITGAKVSKFYDDGVDYLLTDGTEHDLKGFDSVVLAMGSRNYDPLSEVIKEVVKETYIVGDAVKARRALDATKEAFEVALNI
modifications: Clostridium difficile; cdFLDZ Polypeptide
B5: nfsA: nitroreductase derived from Escherichia coli, SEQ ID NO: 13, overexpressed in E. coli (protein, listed as Escherichia coli)
chain: MTPTIELICGHRSIRHFTDEPISEAQREAIINSARATSSSSFLQCSSIIRITDKALREELVTLTGGQKHVAQAAEFWVFCADFNRHLQICPDAQLGLAEQLLLGVVDTAMMAQNALIAAESLGLGGVYIGGLRNNIEAVTKLLKLPQHVLPLFGLCLGWPADNPDLKPRLPASILVHENSYQPLDKGALAQYDEQLAEYYLTRGSNNRRDTWSDHIRRTIIKESRPFILDYLHKQGWATR
modifications: nfsA Polypeptide
B6: nfsB: nitroreductase derived from Escherichia coli, SEQ ID NO:15, overexpressed in E. coli (protein, listed as Escherichia coli)
chain: MDIISVALKRHSTKAFDASKKLTPEQAEQIKTLLQYSPSSTNSQPWHFIVASTEEGKARVAKSAAGNYVFNERKMLDASHVVVFCAKTAMDDVWLKLVVDQEDADGRFATPEAKAANDKGRKFFADMHRKDLHDDAEWMAKQVYLNVGNFLLGVAALGLDAVPIEGFDAAILDAEFGLKEKGYTSLVVVPVGHHSVEDFNATLPKSRLPQNITLTEV
modifications: nfsB Polypeptide

Tests used:
[1] = Deammonase activity of purified enzymes by absorptiometry; format: biochemical; settings: purified recombinant enzyme 2 mg/mL, 50 mM Tris-HCl pH 8.6, 0.3 to 9.6 mM substrate, 380 nm, 10 minutes
Experimental: • Apparatus: BECKMAN COULTER DU800 UV/Vis Spectrophotometer • Amount of enzyme: 2mg/mL • Buffer solution: 50mM Tris-HCl buffer (pH=8.6) • Concentration of substrate: 0.3mM to 9.6mM • Volume: 200μL • Measurement wavelength: From 4-nitrophenylalanine to 380 nm 4-nitrocinnamic acid: From phenylalanine to 305 nm cinnamic acid: • Measurement period: 10 minutes • Measurement temperature: 25° C.
Each of the CamPAL-, LiePAL-, and RgPAL-producing Escherichia coli strains was inoculated to 5 mL of LB medium containing 30 mg/L kanamycin sulfate, and cultured at 28° C. for 16 hours (hereinafter also may be referred to as “preculture”). […]
The enzyme activity was measured and quantified by measuring the absorbance of the reaction product at the absorption wavelength for 10 minutes using an absorptiometer.
Specifically, regarding the deammonase activity for phenylalanine, 2 mg/mL of each of the above enzymes was added to 50 mM Tris-HCl buffer (pH=8.6) containing 0.3 to 9.6 mM phenylalanine to cause reaction, and the change in absorbance at a wavelength of 305 nm resulting from the formation of cinnamic acid was measured for 10 minutes. […]

[2] = Resting-cell reaction of PAL-producing E. coli, 4-nitrophenylalanine to 4-nitrocinnamic acid; format: cell-based, Escherichia coli; settings: resting cells, 24 hours, 28° C., pH 8.5, 20 mM 4-nitrophenylalanine; versus control Escherichia coli
Experimental: The CamPAL-, LiePAL-, and RgPAL-producing Escherichia coli strains mentioned above were precultured using 3 mL of LB medium containing 40 mg/L kanamycin sulfate at 28° C. for 16 hours with stirring at 300 rpm. 1 mL of this pre-cultured liquid was inoculated to 100 mL of LB medium containing 40 mg/L of kanamycin sulfate, cultured at 30° C. for 4 hours with shaking at 120 rpm, and after the addition of 0.5 mM of IPTG, incubated further for 20 hours. The obtained bacterial cells were washed twice with a reaction buffer (100 mM Tris-HCl buffer, pH 8.5).
The resting cells obtained were suspended in a reaction buffer and reacted at 28° C. with shaking at 300 rpm. 20 mM of 4-nitrophenylalanine was added to the medium every 24 hours while the reaction was continued. The reaction supernatant was periodically collected to quantify 4-nitrophenylalanine and 4-nitrocinnamic acid.
The supernatant was transferred to a centrifuge tube, collected by centrifugation, and the reaction product was quantified using high performance liquid chromatography (HPLC).
(§1) The same experiment was also performed using the host Escherichia coli as a control.

[3] = Resting-cell reaction of scFrm2-, scHbn1-, cdFLDZ-producing E. coli, 4-nitrocinnamic acid to 4-aminocinnamic acid; format: cell-based, Escherichia coli; settings: resting cells, 2.5 mM 4-nitrocinnamic acid, 30° C., 12 hours, pH 7.0; versus control E. coli
Experimental: Each of the scFrm2-, scHbn1-, and cdFLDZ-producing Escherichia coli strains were precultured using 3 mL of LB medium containing 30 mg/L kanamycin sulfate at 28° C. for 16 hours with shaking at 300 rpm. 1 mL of this preculture liquid was inoculated to 100 mL of LB medium containing 30 mg/L kanamycin sulfate, cultured at 30° C. for 4 hours with shaking at 120 rpm, and after 0.1 mM IPTG was added, incubated further at 20° C. for 12 hours. The obtained bacterial cells were washed twice with a reaction buffer (100 mM potassium dihydrogen phosphate (KH2PO4), 1 mM magnesium sulfate (MgSO4), 0.5 mM thiamine chloride, pH 7.0).
The resting cells thus obtained were suspended in a reaction buffer containing 2.5 mM 4-nitrocinnamic acid, and reacted at 30° C. for 12 hours with shaking at 300 rpm. After the reaction, the reaction supernatant was collected to quantify 4-aminocinnamic acid. The supernatant was transferred to a centrifuge tube, collected by centrifugation, and the reaction product was quantified using the above HPLC.
as §1

[4] = Enzyme activities of nfsA and nfsB in cell reactions, 4-nitrocinnamic acid to 4-aminocinnamic acid; format: cell-based, Escherichia coli; settings: 2 g/L 4-nitrocinnamic acid, 2% glycerol, pH 8.0, 37° C., 18 hours
Experimental: Each of the nfsA- and nfsB-producing Escherichia coli strains was precultured using 5 mL of LB medium containing 40 mg/L of streptomycin sulfate at 28° C. for 16 hours with shaking at 300 rpm. 1 mL of this pre-cultured solution was inoculated to 100 mL of TB medium containing 80 mg/L streptomycin sulfate, cultured at 30° C. for 4 hours with shaking at 120 rpm. 0.1 mM IPTG was added, and the culture was further incubated at 30° C. for another 18 hours.
The pH of the culture medium containing the obtained bacterial cells was adjusted to 8.0 by addition of 2N NaOH. 2 g/L of 4-nitrocinnamic acid and 2% final concentration of glycerol were suspended in this culture medium, and the reaction was carried out at 37° C. for 18 hours with shaking at 120 rpm. After the reaction, the reaction solution supernatant was collected to quantify 4-aminocinnamic acid. Specifically, the supernatant was transferred to a centrifuge tube, collected by centrifugation, and the reaction product was quantified using the above HPLC.
The same experiment was also carried out using the host Escherichia coli as a control.

Molecule	amount of 4-aminocinnamic acid in the medium supernatant [3]	4-aminocinnamic acid converted from 4-nitrocinnamic acid [4]	other results
B1			capacity to convert 4-nitrophenylalanine to 4-nitrocinnamic acid [1]: have a capacity to covert 4-nitrophenylalanine to 4-nitrocinnamic acid; amount of 4-nitrocinnamic acid in the reaction supernatant [2]: significantly higher than that of the control Escherichia coli
B2	remarkably increased as compared with the control E. coli		
B3	remarkably increased as compared with the control E. coli		
B4	remarkably increased as compared with the control E. coli		
B5		0.26 g/L	
B6		0.76 g/L	

— patent US20210017555A1, “METHOD FOR PRODUCING 4-AMINOCINNAMIC ACID, AND VECTOR AND HOST CELL USED IN SAME” (JAPAN SCIENCE AND TECHNOLOGY AGENCY, priority 2018, published 2021)
